According to patent US9523084B2, “Phosphodeoxyribosyl transferase mutant enzymes and uses thereof” (Centre National De La Recherche Scientifique, priority 2012, dated 2016):

What was measured:
[1] = substrate: Nc1ncnc2c1ncn2[C@H]1C[C@H](O)[C@@H](COP(=O)(O)OP(=O)(O)OP(=O)(O)O)O1; experiment: Spectrophotometric assay coupled to xanthine oxidase, dATP + C ⇄ dCTP + A; type: biochemical, Lactobacillus leichmannii; conditions: 50 mM MES pH6.0, 37° C., pH 6.0
Method: Further, the cinetic parameters of these mutant enzymes were analysed, using a specific spectrophotometric assay. Briefly, the assay consists in measuring the formation of the final product (2,8 dihydroxyadenine) of the reaction:
Briefly, the assay was performed using the coupling of two enzymes: the variant (PDTT2, PDTT4, PDTT5, PDTT6, or PDTT7) to be tested and xanthine oxidase (obtained from Roche). The reaction mixture contained varying concentrations of dATP, 1 mM cytosine in a 50 mM MES buffer pH6.0 at 37° C. The reaction was initiated by adding 30 units of the purified variant to be tested and xanthine oxidase (Roche). The released adenine was then oxidized in 2,8-dihydroxyadenine which absorbs at 301 nm. The formation (i.e. concentration) of 2,8 dihydroxyadenine was measured by spectrophotometry.

[2] = Standard enzyme assay (HPLC): specific activities of PDT variants with natural purines and pyrimidines; type: biochemical; conditions: donor 3 mM, acceptor 1 mM
Method: (§1) The standard assay (“first protocol for enzyme assay”) for the different NDTs consisted of 5-15 μg of NDT in 50 mM MES buffer pH 6.0, dNxP (dNMP, or dNDP or dNTP) 3 mM and a base 1 mM in a total volume of 50 μL. Assays were incubated for 60 min at 37° C. The products of the reactions were analyzed each 7 min by Rapid resolution high performance liquid chromatography using a reverse-phase column (ZORBAX Eclipse XDB-C18 2.1*50 mm 1.8 μM) with a flow rate of 0.25 ml/min and a linear gradient of 1-12% CH3CN (2-25% CH3CN or 1-90% CH3CN) in 20 mM triethylammonium acetate, pH 7.5, buffer for 7 min. The low resolution mass spectra of the newly synthesized deoxyribonucleotides were obtained on an Agilent 1200 series LC/MS 6120 quadrupole system using an atmospheric electrospray ionization system.
Unless specifically mentioned, the results presented hereafter have been obtained by using the first protocol for performing the enzyme assay.

[3] = Catalytic activity of PDTT2 to PDTT7, dATP formed (HPLC); type: biochemical; conditions: dCTP + A ⇄ dATP + C; 2 mM dCTP, 1 mM Adenine, 37° C., MES 50 mM pH6.0
Method: In specific cases, an alternative protocol was used to perform the enzyme assay. In this second protocol, the dNxP (dNMP, or dNDP or dNTP) concentration was of only 2 mM, instead of 3 mM. All of the other conditions were identical to those of the first protocol.
The catalytic activity of the mutant enzymes PDTT2, PDTT3, PDTT3b, PDTT4, PDTT5, PDTT6, PDTT7 has been compared. Briefly, a sufficient amount of enzyme mutant necessary to obtain a linear reaction over a period of one hour at 37° C. has been mixed in 2 mM dCTP and 1 mM Adenine in a final volume of 50 μL of MES buffer 50 mM pH6.0. Assays were incubated for 60 min at 37° C. The products of the reactions were analyzed each 7 min by Rapid resolution high performance liquid chromatography using a reverse-phase column (ZORBAX Eclipse XDB-C18 2.1*50 mm […]) with a flow rate of 0.25 ml/min and a linear gradient of 1-12% CH3CN (2-25% CH3CN or 1-90% CH3CN) in 20 mM triethylammonium acetate, pH 7.5, buffer for 7 min.

[4] = In vitro synthesis of deoxynucleotide analogues: specific activities; type: biochemical
Method: as §1
The donor concentration was 3 mM and the acceptor 1 mM except for dCTP 2 mM 5-BrU 1 mM and dAMP 2 mM 5-FU 1 mM. Activities are expressed in nanomoles of deoxynucleotides synthesized per min per mg of protein.

B1: Lactobacillus leichmannii nucleoside deoxyribosyltransferase (NDT, SEQ ID NO:1) variant PDTT4, R13 Q91 G92 S93 S123 K157 (F13R/E91Q/D92G/V93S/N123S/Y157K), SEQ … (protein)
chain: MPKKTIYFGAGWRTDRQNKAYKEAMEALKENPTIDLENSYVPLDNQYKGIRVDEHPEYLHDKVWATATYNNDLNGIKTNDIMLGVYIPDEQGSGLGMELGYALSQGKYVLLVIPDEDYGKPISLMSWGVSDNVIKMSQLKDFNFNKPRFDFYEGAVK
notes: xanthine oxidase is coupling enzyme only
[1]; other: PDTT4, 1 mM cytosine
  Km: 2300 µM
  kcat: 8.8 s⁻¹
  kcat/Km: 3800 M⁻¹ s⁻¹

B2: Lactobacillus leichmannii nucleoside deoxyribosyltransferase (NDT, SEQ ID NO:1) variant PDTT5, R13 Q91 G92 P93 S123 R157 (F13R/E91Q/D92G/V93P/N123S/Y157R), SEQ … (protein)
chain: MPKKTIYFGAGWRTDRQNKAYKEAMEALKENPTIDLENSYVPLDNQYKGIRVDEHPEYLHDKVWATATYNNDLNGIKTNDIMLGVYIPDEQGPGLGMELGYALSQGKYVLLVIPDEDYGKPISLMSWGVSDNVIKMSQLKDFNFNKPRFDFYEGAVR
notes: as for B1
[1]; other: PDTT5, 1 mM cytosine
  Km: 200 µM
  kcat: 8.78 s⁻¹
  kcat/Km: 42800 M⁻¹ s⁻¹

B3: PDTT2: NDT mutant R13 Q91 G92 T93 S123, SEQ ID NO:10 (protein)
chain: MPKKTIYFGAGWRTDRQNKAYKEAMEALKENPTIDLENSYVPLDNQYKGIRVDEHPEYLHDKVWATATYNNDLNGIKTNDIMLGVYIPDEQGTGLGMELGYALSQGKYVLLVIPDEDYGKPISLMSWGVSDNVIKMSQLKDFNFNKPRFDFYEGAVY
modifications: PDTT2 enzyme mutant
[2]; dADP + C ⇄ dCDP + A
  Specific activity: 8 nanomoles of deoxynucleotides synthesized per min per mg of protein
[2]; dADP + Hx ⇄ dIDP + A
  Specific activity: <0.1 nanomoles of deoxynucleotides synthesized per min per mg of protein
[2]; dAMP + C ⇄ dCMP + A
  Specific activity: 31 nanomoles of deoxynucleotides synthesized per min per mg of protein
[2]; dAMP + Hx ⇄ dIMP + A
  Specific activity: <0.1 nanomoles of deoxynucleotides synthesized per min per mg of protein
[2]; dATP + C ⇄ dCTP + A
  Specific activity: 15 nanomoles of deoxynucleotides synthesized per min per mg of protein
[2]; dATP + Hx ⇄ dITP + A
  Specific activity: <0.1 nanomoles of deoxynucleotides synthesized per min per mg of protein
[2]; dCDP + A ⇄ dADP + C
  Specific activity: 66 nanomoles of deoxynucleotides synthesized per min per mg of protein
[2]; dCDP + U ⇄ dUDP + C (U used as acceptor base instead of T)
  Specific activity: 8 nanomoles of deoxynucleotides synthesized per min per mg of protein
[2]; dCMP + A ⇄ dAMP + C
  Specific activity: 286 nanomoles of deoxynucleotides synthesized per min per mg of protein
[2]; dCMP + T ⇄ dTMP + C
  Specific activity: 1.1 nanomoles of deoxynucleotides synthesized per min per mg of protein
[2]; dCTP + A ⇄ dATP + C
  Specific activity: 51 nanomoles of deoxynucleotides synthesized per min per mg of protein
[2]; dCTP + T ⇄ dTTP + C
  Specific activity: 1.4 nanomoles of deoxynucleotides synthesized per min per mg of protein
[2]; dGDP + A ⇄ dADP + G
  Specific activity: 33 nanomoles of deoxynucleotides synthesized per min per mg of protein
[2]; dGMP + A ⇄ dAMP + G
  Specific activity: 50 nanomoles of deoxynucleotides synthesized per min per mg of protein
[2]; dGTP + A ⇄ dATP + G
  Specific activity: 36 nanomoles of deoxynucleotides synthesized per min per mg of protein
[3]
  Catalytic activity (nmol of dATP formed/min/mg of enzyme protein): 9.6 nmol of dATP formed/min/mg of enzyme protein
[4]; dAMP + 5-FU → A + 5-F-dUMP, dAMP 2 mM 5-FU 1 mM
  Specific activity: 48.4 nanomoles of deoxynucleotides synthesized per min per mg of protein
[4]; dCMP + 2,6-D → C + 2,6-DMP, donor 3 mM, acceptor 1 mM
  Specific activity: 95.8 nanomoles of deoxynucleotides synthesized per min per mg of protein
[4]; dCMP + 2,6-chloropurine → C + 2,6-dichloropurine 2′-deoxyribose 5′-monophosphate, donor 3 mM, acceptor 1 mM
  Specific activity: 37 nanomoles of deoxynucleotides synthesized per min per mg of protein
[4]; dCMP + 5-BrU → C + 5-Br-dUMP, donor 3 mM, acceptor 1 mM
  Specific activity: 10.7 nanomoles of deoxynucleotides synthesized per min per mg of protein
[4]; dCMP + 6-chloropurine → C + 6-chloropurine 2′-deoxyribose 5′-monophosphate, donor 3 mM, acceptor 1 mM
  Specific activity: 75 nanomoles of deoxynucleotides synthesized per min per mg of protein
[4]; dCTP + 2,6-D → C + 2,6-DTP, donor 3 mM, acceptor 1 mM
  Specific activity: 17 nanomoles of deoxynucleotides synthesized per min per mg of protein
[4]; dCTP + 2,6-chloropurine → C + 2,6-dichloropurine 2′-deoxyribose 5′-triphosphate, donor 3 mM, acceptor 1 mM
  Specific activity: 14 nanomoles of deoxynucleotides synthesized per min per mg of protein
[4]; dCTP + 5-BrU → C +5-Br-dUTP, dCTP 2 mM 5-BrU 1 mM
  Specific activity: 12 nanomoles of deoxynucleotides synthesized per min per mg of protein
[4]; dCTP + 5-FU → C + 5-F-dUTP, donor 3 mM, acceptor 1 mM
  Specific activity: 39.4 nanomoles of deoxynucleotides synthesized per min per mg of protein
[4]; dCTP + 6-chloropurine → C + 6-chloropurine 2′-deoxyribose 5′-triphosphate, donor 3 mM, acceptor 1 mM
  Specific activity: 15 nanomoles of deoxynucleotides synthesized per min per mg of protein
[4]; dCTPαS + A → C + dATPαS, donor 3 mM, acceptor 1 mM
  Specific activity: 54 nanomoles of deoxynucleotides synthesized per min per mg of protein
